PMC5414174, “DNA replication licensing factor Cdc6 and Plk4 kinase antagonistically regulate centrosome duplication via Sas-6” (Nature Communications, 2017)

Target: T1, GST-tagged Plk4 (human, UniProt O00444 1-970)
T1 construct: human Plk4, cloned from a cDNA library by PCR into pGEX 4T-1; also called GST-Plk4; source: E. coli BL21, purified (glutathione Sepharose 4B); not shown: GST, N-terminal, kept
T1 sequence (looked up): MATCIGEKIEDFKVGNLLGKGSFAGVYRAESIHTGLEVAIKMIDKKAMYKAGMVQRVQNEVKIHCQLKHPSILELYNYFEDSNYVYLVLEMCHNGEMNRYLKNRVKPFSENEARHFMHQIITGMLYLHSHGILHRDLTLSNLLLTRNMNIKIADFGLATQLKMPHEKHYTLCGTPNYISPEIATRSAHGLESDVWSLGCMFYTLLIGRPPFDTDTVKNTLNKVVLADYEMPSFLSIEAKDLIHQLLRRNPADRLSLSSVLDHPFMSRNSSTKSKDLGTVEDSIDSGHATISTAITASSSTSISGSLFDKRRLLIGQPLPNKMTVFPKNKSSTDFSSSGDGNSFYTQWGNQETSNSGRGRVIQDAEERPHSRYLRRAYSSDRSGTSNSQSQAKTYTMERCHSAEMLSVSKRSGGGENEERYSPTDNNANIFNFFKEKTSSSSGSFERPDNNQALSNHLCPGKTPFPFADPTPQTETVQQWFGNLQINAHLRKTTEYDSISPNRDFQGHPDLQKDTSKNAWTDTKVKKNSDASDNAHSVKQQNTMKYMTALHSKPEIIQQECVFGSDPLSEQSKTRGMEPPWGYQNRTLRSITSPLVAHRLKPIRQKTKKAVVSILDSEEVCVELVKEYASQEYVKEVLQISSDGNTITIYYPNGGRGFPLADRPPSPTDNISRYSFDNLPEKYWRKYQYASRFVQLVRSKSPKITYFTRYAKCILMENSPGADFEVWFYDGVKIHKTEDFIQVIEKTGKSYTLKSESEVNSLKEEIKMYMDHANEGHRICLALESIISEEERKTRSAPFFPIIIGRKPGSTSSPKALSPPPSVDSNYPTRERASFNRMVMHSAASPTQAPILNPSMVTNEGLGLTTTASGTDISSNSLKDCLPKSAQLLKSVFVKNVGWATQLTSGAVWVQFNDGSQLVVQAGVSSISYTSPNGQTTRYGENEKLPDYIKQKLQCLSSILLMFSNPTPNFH
Assay: pull-down; Sepharose beads coupled with purified GST-Plk4 incubated with purified His-Cdc6; western blot with His antibody
Conditions: both partners purified

binding result: binds
B1: His-tagged Cdc6 (purified) (natural protein, human, UniProt Q99741 1-560, looked up)
chain: MPQTRSQAQATISFPKRKLSRALNKAKNSSDAKLEPTNVQTVTCSPRVKALPLSPRKRLGDDNLCNTPHLPPCSPPKQGKKENGPPHSHTLKGRRLVFDNQLTIKSPSKRELAKVHQNKILSSVRKSQEITTNSEQRCPLKKESACVRLFKQEGTCYQQAKLVLNTAVPDRLPAREREMDVIRNFLREHICGKKAGSLYLSGAPGTGKTACLSRILQDLKKELKGFKTIMLNCMSLRTAQAVFPAIAQEICQEEVSRPAGKDMMRKLEKHMTAEKGPMIVLVLDEMDQLDSKGQDVLYTLFEWPWLSNSHLVLIGIANTLDLTDRILPRLQAREKCKPQLLNFPPYTRNQIVTILQDRLNQVSRDQVLDNAAVQFCARKVSAVSGDVRKALDVCRRAIEIVESDVKSQTILKPLSECKSPSEPLIPKRVGLIHISQVISEVDGNRMTLSQEGAQDSFPLQQKILVCSLMLLIRQLKIKEVTLGKLYEAYSKVCRKQQVAAVDQSECLSLSGLLEARGILGLKRNKETRLTKVFFKIEEKEIEHALKDKALIGNILATGLP
notes: human Cdc6; also called His-Cdc6; source: E. coli BL21, purified (His60 Ni Superflow resin)
